In patent US20230250176A1:

Assays:
[1] = molecular target: purified recombinant human FcγRI (human) (UniProt P12314); assay: SPR (Biacore 8K), 25 C
[2] = molecular target: purified recombinant human FcγRIIa H131 (human) (UniProt P12318); assay: SPR (Biacore 8K), 25 C
Chain of purified recombinant human FcγRIIa H131 (human) (P12318 36-218 limits assumed): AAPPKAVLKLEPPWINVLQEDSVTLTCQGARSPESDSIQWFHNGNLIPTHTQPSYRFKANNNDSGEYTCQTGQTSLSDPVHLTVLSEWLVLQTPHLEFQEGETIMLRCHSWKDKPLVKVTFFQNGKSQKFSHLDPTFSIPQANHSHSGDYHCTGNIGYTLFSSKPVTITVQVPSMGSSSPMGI

Substance	Kd [1] [nM]	Kd [2] [nM]
cetuximab (antibody)	7.3	–
panitumumab (antibody)	–	1100
